Experimental findings from paper PMC9537309 are described below.

First the molecules themselves.
B1: FLAG-tagged DND1 wild-type (Dead End, full-length human protein 1-353) [human] / HNRNPL [human (endogenous in HEK293T)] (parent)
chain 1: MQSKRDCELWCERVNPENKAALEAWVRETGIRLVQVNGQRKYGGPPPGWVGSPPPAGSEVFIGRLPQDVYEHQLIPLFQRVGRLYEFRLMMTFSGLNRGFAYARYSSRRGAQAAIATLHNHPLRPSCPLLVCRSTEKCELSVDGLPPNLTRSALLLALQPLGPGLQEARLLPSPGPAPGQIALLKFSSHRAAAMAKKALVEGQSHLCGEQVAVEWLKPDLKQRLRQQLVGPFLRSPQPEGSQLALARDKLGFQGARATLQLLCQRMKLGSPVFLTKCLGIGPAGWHRFWYQVVIPGHPVPFSGLIWVVLTLDGRDGHEVAKDAVSVRLLQALSESGANLLWSAGAEAGTMVKQ
chain 2: MSRRLLPRAEKRRRRLEQRQQPDEQRRRSGAMVKMAAAGGGGGGGRYYGGGSEGGRAPKRLKTDNAGDQHGGGGGGGGGAGAAGGGGGGENYDDPHKTPASPVVHIRGLIDGVVEADLVEALQEFGPISYVVVMPKKRQALVEFEDVLGACNAVNYAADNQIYIAGHPAFVNYSTSQKISRPGDSDDSRSVNSVLLFTILNPIYSITTDVLYTICNPCGPVQRIVIFRKNGVQAMVEFDSVQSAQRAKASLNGADIYSGCCTLKIEYAKPTRLNVFKNDQDTWDYTNPNLSGQGDPGSNPNKRQRQPPLLGDHPAEYGGPHGGYHSHYHDEGYGPPPPHYEGRRMGPPVGGHRRGPSRYGPQYGHPPPPPPPPEYGPHADSPVLMVYGLDQSKMNCDRVFNVFCLYGNVEKVKFMKSKPGAAMVEMADGYAVDRAITHLNNNFMFGQKLNVCVSKQPAIMPGQSYGLEDGSCSYKDFSESRNNRFSTPEQAAKNRIQHPSNVLHFFNAPLEVTEENFFEICDELGVKRPSSVKVFSGKSERSSSGLLEWESKSDALETLGFLNHYQMKNPNGPYPYTLKLCFSTAQHAS
B2: FLAG-tagged DND1 wild-type (Dead End, full-length human protein 1-353) [human] / SYNCRIP [human (endogenous in HEK293T)] (parent)
chain 1: B1 chain 1
chain 2: MATEHVNGNGTEEPMDTTSAVIHSENFQTLLDAGLPQKVAEKLDEIYVAGLVAHSDLDERAIEALKEFNEDGALAVLQQFKDSDLSHVQNKSAFLCGVMKTYRQREKQGTKVADSSKGPDEAKIKALLERTGYTLDVTTGQRKYGGPPPDSVYSGQQPSVGTEIFVGKIPRDLFEDELVPLFEKAGPIWDLRLMMDPLTGLNRGYAFVTFCTKEAAQEAVKLYNNHEIRSGKHIGVCISVANNRLFVGSIPKSKTKEQILEEFSKVTEGLTDVILYHQPDDKKKNRGFCFLEYEDHKTAAQARRRLMSGKVKVWGNVGTVEWADPIEDPDPEVMAKVKVLFVRNLANTVTEEILEKAFSQFGKLERVKKLKDYAFIHFDERDGAVKAMEEMNGKDLEGENIEIVFAKPPDQKRKERKAQRQAAKNQMYDDYYYYGPPHMPPPTRGRGRGGRGGYGYPPDYYGYEDYYDYYGYDYHNYRGGYEDPYYGYEDFQVGARGRGGRGARGAAPSRGRGAAPPRGRAGYSQRGGPGSARGVRGARGGAQQQRGRGVRGARGGRGGNVGGKRKADGYNQPDSKRRQTNNQNWGSQPIAQQPLQGGDHSGNYGYKSENQEFYQDTFGQQWK
B3: FLAG-tagged DND1 wild-type (Dead End, full-length human protein 1-353) [human] / RNA helicase MOV10 [human (endogenous in HEK293T)] (parent)
chain 1: B1 chain 1
chain 2: MPSKFSCRQLREAGQCFESFLVVRGLDMETDRERLRTIYNRDFKISFGTPAPGFSSMLYGMKIANLAYVTKTRVRFFRLDRWADVRFPEKRRMKLGSDISKHHKSLLAKIFYDRAEYLHGKHGVDVEVQGPHEARDGQLLIRLDLNRKEVLTLRLRNGGTQSVTLTHLFPLCRTPQFAFYNEDQELPCPLGPGECYELHVHCKTSFVGYFPATVLWELLGPGESGSEGAGTFYIARFLAAVAHSPLAAQLKPMTPFKRTRITGNPVVTNRIEEGERPDRAKGYDLELSMALGTYYPPPRLRQLLPMLLQGTSIFTAPKEIAEIKAQLETALKWRNYEVKLRLLLHLEELQMEHDIRHYDLESVPMTWDPVDQNPRLLTLEVPGVTESRPSVLRGDHLFALLSSETHQEDPITYKGFVHKVELDRVKLSFSMSLLSRFVDGLTFKVNFTFNRQPLRVQHRALELTGRWLLWPMLFPVAPRDVPLLPSDVKLKLYDRSLESNPEQLQAMRHIVTGTTRPAPYIIFGPPGTGKTVTLVEAIKQVVKHLPKAHILACAPSNSGADLLCQRLRVHLPSSIYRLLAPSRDIRMVPEDIKPCCNWDAKKGEYVFPAKKKLQEYRVLITTLITAGRLVSAQFPIDHFTHIFIDEAGHCMEPESLVAIAGLMEVKETGDPGGQLVLAGDPRQLGPVLRSPLTQKHGLGYSLLERLLTYNSLYKKGPDGYDPQFITKLLRNYRSHPTILDIPNQLYYEGELQACADVVDRERFCRWAGLPRQGFPIIFHGVMGKDEREGNSPSFFNPEEAATVTSYLKLLLAPSSKKGKARLSPRSVGVISPYRKQVEKIRYCITKLDRELRGLDDIKDLKVGSVEEFQGQERSVILISTVRSSQSFVQLDLDFNLGFLKNPKRFNVAVTRAKALLIIVGNPLLLGHDPDWKVFLEFCKENGGYTGCPFPAKLDLQQGQNLLQGLSKLSPSTSGPHSHDYLPQEREGEGGLSLQVEPEWRNEL

In one experiment the parent is B1. In words: FLAG immunoprecipitation and LC/ESI-MS/MS. Conditions: with HNRNPL [human (endogenous in HEK293T)]; HEK293T cells, three biological replicates; read off a plot.
Regarding chain 1 MQSKRDCELWCERVNPENKAALEAWVRETGIRLVQVNGQRKYGGPPPGWVGSPPPAGSEVFIGRLPQDVYEHQLIPLFQRVGRLYEFRLMMTFSGLNAGFAYARYSSRRGAQAAIATLHNHPLRPSCPLLVCRSTEKCELSVDGLPPNLTRSALLLALQPLGPGLQEARLLPSPGPAPGQIALLKFSSHRAAAMAKKALVEGQSHLCGEQVAVEWLKPDLKQRLRQQLVGPFLRSPQPEGSQLALARDKLGFQGARATLQLLCQRMKLGSPVFLTKCLGIGPAGWHRFWYQVVIPGHPVPFSGLIWVVLTLDGRDGHEVAKDAVSVRLLQALSESGANLLWSAGAEAGTMVKQ [chain 1 R98A], the screen value was -1.7.

The variants in a further experiment derive from B2. In words: FLAG immunoprecipitation and LC/ESI-MS/MS. The conditions noted are these: with SYNCRIP [human (endogenous in HEK293T)]; HEK293T cells, three biological replicates; read off a plot.
Regarding chain 1 MQSKRDCELWCERVNPENKAALEAWVRETGIRLVQVNGQRKYGGPPPGWVGSPPPAGSEVFIGRLPQDVYEHQLIPLFQRVGRLYEFRLMMTFSGLNAGFAYARYSSRRGAQAAIATLHNHPLRPSCPLLVCRSTEKCELSVDGLPPNLTRSALLLALQPLGPGLQEARLLPSPGPAPGQIALLKFSSHRAAAMAKKALVEGQSHLCGEQVAVEWLKPDLKQRLRQQLVGPFLRSPQPEGSQLALARDKLGFQGARATLQLLCQRMKLGSPVFLTKCLGIGPAGWHRFWYQVVIPGHPVPFSGLIWVVLTLDGRDGHEVAKDAVSVRLLQALSESGANLLWSAGAEAGTMVKQ [chain 1 R98A], the screen value was -2.5.

Variants of B3 are the subject of the next experiment. In words: FLAG immunoprecipitation and LC/ESI-MS/MS. Conditions: with RNA helicase MOV10 [human (endogenous in HEK293T)]; HEK293T cells, three biological replicates; read off a plot.
With chain 1 MQSKRDCELWCERVNPENKAALEAWVRETGIRLVQVNGQRKYGGPPPGWVGSPPPAGSEVFIGRLPQDVYEHQLIPLFQRVGRLYEFRLMMTFSGLNAGFAYARYSSRRGAQAAIATLHNHPLRPSCPLLVCRSTEKCELSVDGLPPNLTRSALLLALQPLGPGLQEARLLPSPGPAPGQIALLKFSSHRAAAMAKKALVEGQSHLCGEQVAVEWLKPDLKQRLRQQLVGPFLRSPQPEGSQLALARDKLGFQGARATLQLLCQRMKLGSPVFLTKCLGIGPAGWHRFWYQVVIPGHPVPFSGLIWVVLTLDGRDGHEVAKDAVSVRLLQALSESGANLLWSAGAEAGTMVKQ [chain 1 R98A], the screen value is -3.2.
